Reference: patent US8420776B2, “Ube2G2 binding domain in the ubiquitin ligase gp78 and methods of use thereof” (The United States of America, as Represented by the …, priority 2004, dated 2013)

T1: Myc-Ube2G2 (Mus musculus, UniProt P60605)
T1 construct: expressed in transfected cells; host or cells: HEK 293T
T1 sequence (P60605 1-165): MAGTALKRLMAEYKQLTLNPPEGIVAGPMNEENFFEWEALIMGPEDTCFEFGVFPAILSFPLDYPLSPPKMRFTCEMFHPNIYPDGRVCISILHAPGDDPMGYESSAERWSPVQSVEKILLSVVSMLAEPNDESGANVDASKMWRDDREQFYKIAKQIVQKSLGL


Assays:
ERAD substrate CD3-δ = experiment: CD3-δ level in co-transfected cells by immunoblotting; type: cell-based; settings: co-transfection with CD3-δ; immunoblot
Procedure: (§1) Transfections of HT1080, NIH 3T3 and HEK 293T cells were carried out ˜24 hr after plating using Polyfect (Qiagen, Valencia, Calif.) and cells harvested after ˜48 hr. J558 cells were transfected by electroporation using Bio-rad GENE pulser II at settings of 250 v, 950uF. Vector without insert was used to equalize total plasmid. In most experiments 0.15 μg of pEGFP-C1 served as an internal control. For experiments not involving immunoprecipitation, 6×10^5 cells were plated in 6 well plates and cell lysis was with Mammalian Protein Extraction Reagent (Pierce). For immunoprecipitation, 2.4×10^6 cells were seeded in 100 mm dishes and cells were lysed in RIPA buffer (1×PBS, 1% Nonidet P40. 0.5% sodium deoxycholate, 0.1% SDS). Lysis buffers were supplemented with Protease Inhibitor Cocktail (Sigma) and 10 mM iodoacetamide. Supernatants were analyzed after a 10,000×g centrifugation using standard techniques for immunoprecipitation, SDS-PAGE, immunoblotting and ECL. Treatment of cells with MG132 (Sigma) was at 50 μM for eight hr. Cycloheximnide was used at 50 μg/ml. All cells were collected at the end of the six hr chase.
FIG. 7 depicts the stabilization of CD3-δ protein in cells transfected with the G2BD, but not with the G2BD with amino acids 579-584 (of SEQ ID NO:2) mutated. HEK 293T cells were transfected with the ERAD substrate CD3-δ along with the indicated GFP fusions of gp78. The left and right sides are two separate experiments.
To test this, GFP fusions of either a minimal E2 binding domain (GFP-574-611) or a more extended region that includes the C-terminus of gp78 (GFP-574-643) were evaluated (FIG. 21A). […] To assess this further, the C-terminal region of gp78 was fused to the eight amino acid Flag tag. […] Mdm2 is a RING finger E3 for both itself and p53 that is neither an ERAD substrate nor known to utilize Ube2G2 as an E2. […] To establish with certainty that the effect observed with expression of the Ube2G2 binding site is a consequence of binding endogenous E2, and not due to other unanticipated effects, cells were co-transfected with increasing amounts of Ube2G2 (FIG. 21C, lanes 3 and 4). […] These findings clearly establish that the isolated E2 binding site has the potential to markedly alter ERAD of CD3-δ. To ensure the effect observed was not peculiar to one substrate, TCR-α was evaluated (FIG. 21D).

gp78 [1] = experiment: gp78 level in transfected cells by immunoblotting; type: cell-based; settings: full-length gp78 forms; immunoblot
Procedure: as §1, with “All cells were collected at the end of the six hr chase.” left out
(§2) gp78 is degraded in a proteasome-dependent manner, and deletion of the entire cytoplasmic domain results in its stabilization. […] To determine the significance of the RING finger, Cue domain and Ube2G2 binding site on gp78 stability, mutations of each were evaluated within full-length gp78. […]

gp78 [2] = experiment: gp78 ubiquitylation in transfected cells (IP anti-gp78, IB anti-ubiquitin); type: cell-based; settings: 50 μM MG132 eight hours
Procedure: FIGS. 20A-20E depict the requirement of multiple domains of gp78 to target itself and a heterologous ERAD substrate. (FIG. 20A) Cells were co-transfected with the indicated forms of full length gp78 together with CD3-δ and lysates analyzed by IB. (B) Cells were transfected with wild type and mutant gp78 plasmids as indicated. Samples were treated with 50 μM MG132 for eight hours, lysates IP'ed with anti-gp78 followed by […] with either antiubiquitin (upper) or anti-gp78 (lower). Arrow in upper panel indicates migration of unmodified gp78. (FIGS. 20C and 20D) Cells were co-transfected with HA-CD3-δ and wild type (WT) or mutant forms of gp78. Cells were treated with cycloheximide (CHX) as indicated. (FIG. 20E) Graphic representation of CD3-δ levels from FIGS. 20C and 20D (fall length gp78 transfections only), Cue-m1, 2 is the average of data shown in FIGS. 20C and 20D.
as §1, with “Lysis buffers were supplemented with Protease Inhibitor Cocktail (Sigma) and 10 mM iodoacetamide.” left out, “Treatment of cells with MG132 (Sigma) was at 50 μM for eight hr. Cycloheximnide was used at 50 μg/ml. All cells were collected at the end of the six hr chase.” left out
as §2

Myc-Ube2G2 = molecular target: T1, Myc-Ube2G2; experiment: Co-immunoprecipitation with co-expressed Myc-Ube2G2 in cells; type: cell-based; settings: anti-Myc IP, anti-gp78 IB; MG132 8 hr
Procedure: as §1
FIG. 5 depicts the results of immunoprecipitation of Ube2G2 (MmUbc7) from HEK 293T cells co-transfected with a plasmid encoding myc-tagged MmUbc7/Ube2G2 together with s plasmid encoding various forms of gp78. HEK 293T cells were transfected with a plasmid encoding myc-tagged MmUbc7/Ube2G2 together with plasmids encoding various forms of gp78. After 48 hours, cells were harvested and co-immuntoprecipitated with an anti-Myc tage. Anti-gp78 was used for detection. “R2M” indicates a mutation of two crucial residues in the RING finger. “T” indicates C terminal truncations at the indicated amino acids. ΔB is the mutation indicated above in FIG. 4 in the context of the full length gp78 and “Cue12M” indicates mutations in the Cue domain of gp78.
To confirm the significance of the Ube2G2 binding site in cells, a variety of mutations and truncations of full-length gp78 were tested for binding of co-expressed Myc-Ube2G2 (FIG. 19A). Cells were treated with the proteasome inhibitor MG132 in an attempt to equalize levels of the various forms of gp78.

UbcH5B = molecular target: T2, UbcH5B (Homo sapiens, UniProt P62837); experiment: GST pull-down binding of in vitro translated UbcH5B; settings: GST fusion pull-down
T2 construct: made in house; host or cells: in vitro translation in wheat germ
T2 sequence (P62837 whole entry, the tested form may be a part): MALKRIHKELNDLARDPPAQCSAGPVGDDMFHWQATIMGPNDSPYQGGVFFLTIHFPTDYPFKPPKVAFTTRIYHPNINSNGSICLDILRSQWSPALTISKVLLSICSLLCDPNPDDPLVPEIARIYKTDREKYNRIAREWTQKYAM
Procedure: GST fusions were purified from E. Coli. Binding was carried out using equi-molar amount of fusion proteins measured by Commassie blue staining. Generally, 20 picomoles/sample were used. In vitro translated E2 was generated by coupled transcription and translation using 35S methionine in either wheat germ or rabbit reticulocyte lysate. Binding assays using in vitro translated E2 was carried out by incubating GST protein pre-bound to Glutathione-sepharose 4B with […] of ^35S-methionine labeled E2 in binding buffer (25 mM Tris-HCl, pH 7.4; 50 mM NaCl, 5 mM DTT; and 0.5% NP-40) overnight at 4° C. Beads were washed with binding buffer and resolved by SDS-PAGE under reducing conditions. Analysis was by Storm PhosphoImager (Applied Biosystems, Foster City, Calif.). Direct binding assays used wild type His6-MmUbc7 (His6-Ube2G2) and Glutathione-sepharose bound GST fusions. Beadbound GST protein was incubated with 100 ng purified His6-MmUbc7 in binding buffer and washed and eluted as above. After transfer to Hybond-P (Amersham Biosciences) binding was assessed with anti-His6 followed by Enhanced Chemiluminescence ECL; Pierce). Ubiquitin binding studies were performed with binding and washing as above using 1 μg K48 tetra-ubiquitin produced as described (Piotrowski et al., 1997). Detection was by anti-ubiquitin immunoblotting. […]

Molecule | effect on CD3-δ level (stabilization) (ERAD substrate CD3-δ) | gp78 level compared to wild type (gp78 [1]) | gp78 ubiquitylation (ubiquitin immunoreactivity) (gp78 [2]) | E2 association of full-length gp78 forms with co-expressed Myc-Ube2G2 (Myc-Ube2G2) | binding to in vitro translated UbcH5B (UbcH5B)
gp78Cue-m1, 2: full-length gp78 with mutations in the Cue domain (label Cue-m1, 2 in b279) (protein) MPLLFLERFPWPSLRTYTGLSGLALLGTIISAYRALSQPEAGPGEPDQLTASLQPEPPAPARPSAGGPRARDVAQYLLSDSLFVWVLVNTACCVLMLVAKLIQCIVFGPLRVSERQHLKDKFWNFIFYKFIFIFGVLNVQTVEEVVMWCLWFAGLVFLHLMVQLCKDRFEYLSFSPTTPMSSHGRVLSLLVAMLLSCCGLAAVCSITGYTHGMHTLAFMAAESLLVTVRTAHVILRYVIHLWDLNHEGTWEGKGTYVYYTDFVMELTLLSLDLMHHIHMLLFGNIWLSMASLVIFMQLRYLFHEVQRRIRRHKNYLRVVGNMEARFAVATPEELAVNNDDCAICWDSMQAARKLPCGHLFHNSCLRSWLEQDTSCPTCRMSLNIADNNRVREEHQGENLDENLVPVAAAEGRPRLNQHNHFFHFDGSRIASWLPSFSVEVMHTTNILGITQASNSQLNAMAHQIQEGGRQVPYHLRLQVDQLTRSVEITTDNILEGRIQVPFPTQRSDSIRPALNSPVERPSSDQEEGETSAQTERVPLDLSPRLEETLDFGEVEVEPSEVEDFEARGSRFSKSADERQRMLVQRKDELLQQARKRFLNKSSEDDAASESFLPLEGASSDPVTLRRRMLAAAAERRLQKQQTS | marked increase in CD3-δ | increased gp78 | dramatic decrease in ubiquitin immunoreactivity | – | –
gp78E2-m2: full-length gp78 with residues 579-584 mutated (label E2-m2 in b279) (protein) MPLLFLERFPWPSLRTYTGLSGLALLGTIISAYRALSQPEAGPGEPDQLTASLQPEPPAPARPSAGGPRARDVAQYLLSDSLFVWVLVNTACCVLMLVAKLIQCIVFGPLRVSERQHLKDKFWNFIFYKFIFIFGVLNVQTVEEVVMWCLWFAGLVFLHLMVQLCKDRFEYLSFSPTTPMSSHGRVLSLLVAMLLSCCGLAAVCSITGYTHGMHTLAFMAAESLLVTVRTAHVILRYVIHLWDLNHEGTWEGKGTYVYYTDFVMELTLLSLDLMHHIHMLLFGNIWLSMASLVIFMQLRYLFHEVQRRIRRHKNYLRVVGNMEARFAVATPEELAVNNDDCAICWDSMQAARKLPCGHLFHNSCLRSWLEQDTSCPTCRMSLNIADNNRVREEHQGENLDENLVPVAAAEGRPRLNQHNHFFHFDGSRIASWLPSFSVEVMHTTNILGITQASNSQLNAMAHQIQEMFPQVPYHLVLQDLQLTRSVEITTDNILEGRIQVPFPTQRSDSIRPALNSPVERPSSDQEEGETSAQTERVPLDLSPRLEETLDFGEVEVEPSEVEDFEARGSRFSKSADERAAAGGGRKDELLQQARKRFLNKSSEDDAASESFLPLEGASSDPVTLRRRMLAAAAERRLQKQQTS | neither significantly stabilized CD3-δ nor enhanced its loss | increased gp78 | dramatic decrease in ubiquitin immunoreactivity | loss of E2 binding | –
AO7: GST fusion of the RING finger and surrounding regions of the unrelated E3 enzyme AO7 (protein, left off: a dimerising Fc or GST) QIHKISQALGHVAKEGLGTAMLYELIEKGKEILTDNNIPHGQCVICLYGFQEKEAFTKTPCYHYFHCHCLARYIQHMEQELTTQEQEQERQHVVTKQKAVGVQCPVCREPLVYDLASLKAAPEPQQPMELYQPSAESLRQQEELKLLYQRQQEKGGIIDLEAERNRYF | – | – | – | – | did bind
